Laboratory results taken from patent US20050074865A1 (COMPOUND THERAPEUTICS, published 2005).
Where no end group is shown, it is not given here.

Legend:
[1] = target: T1, biotinylated target peptide NH2-YPYDVPDYAGSGDYKAFD containing the high affinity HA epitope (also: biotinylated, position not given here); assay: sandwich ELISA: component captured on anti-myc (mAb 9E10) plates, biotinylated peptide detected with streptavidin-HRP
T1 construct: also called the peptide
T1 peptide: YPYDVPDYAGSGDYKAFD

[2] = target: T2, S-TNF, human TNFα fusion protein with an N-terminal S-Tag (human, UniProt P01375 77-233); assay: indirect ELISA: sp55 from conditioned medium captured on Ni-NTA wells, S-TNF at 1 µg/mL, detection with S-protein-HRP, absorbance at 370 nm
T2 construct: Made by the applicants; not shown: 15 amino acid S-Tag peptide (Novagen)
T2 sequence (P01375 77-233): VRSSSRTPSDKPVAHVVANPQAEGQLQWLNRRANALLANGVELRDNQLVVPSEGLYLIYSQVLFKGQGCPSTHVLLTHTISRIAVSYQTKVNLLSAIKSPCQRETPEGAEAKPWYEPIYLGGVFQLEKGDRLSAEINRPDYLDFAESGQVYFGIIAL

Row | Binder | binding result [1] | fold elevation of S-TNF binding over non-specific binding in control samples [2] [fold]
1 | scFvαHA, single chain antibody derived from monoclonal antibody mAb26/9 (address domain alone, expressed from pSecTag2A with C-terminal myc and His6 tags) (scFv, not shown: small tags and cut ends, also called scHA; scFv anti-HA) scFv: MEVQLLESGGDLVKPGGSLKLSCAASGFTFSTYGMSWVRQTPDKRLEWVATISNGGGYTYYPDSVKGRFTISRDNAKNTLYLQMSSLKSEDTAMYYCARRERYDENGFAYWGRGTLVTVSAGGGGSGGGGSGGGGSDIVMSQSPSSLAVSVGEKITMSCKSSQSLFNSGKQKNYLTWYQQKPGQSPKLLIYWASTRESGVPDRFTGSGSGTDFTLTISSVKAEDLAVYYCQNDYSHPLTFGGGTKLEIKRADAAPT | binds | 
2 | sp55, full-length ecto-domain of human TNFR-1 (residues 30-211) with C-terminal myc and His6 tags, expressed from pSecTag2A (receptor, also called sp55 address domain; p55FL) DAAQPARRAVRSLVPHLGDREKRDSVCPQGKYIHPQNNSICCTKCHKGTYLYNDCPGPGQDTDCRECESGSFTASENHLRHCLSCSKCRKEMGQVEISSCTVDRDTVCGCRKNQYRHYWSENLFQCFNCSLCLNGTVHLSCQEKQNTVCTCHAGFFLRENECVSCSNCKKSLECTKLCLPQIENVKGTEDSGTTRGGPEQKLISEEDLNSAVDHHHHHH |  | 3
